Measured values reported in article PMC2760798 (Nucleic Acids Research, 2009).
Changes are numbered by the printed parent chain. Names and notes keep the numbering of the source.

Experiments:
SfiI endonuclease wt [1] = biological target: T1, SfiI endonuclease wt (UniProt O52512 1-269); test: competition
T1 sequence: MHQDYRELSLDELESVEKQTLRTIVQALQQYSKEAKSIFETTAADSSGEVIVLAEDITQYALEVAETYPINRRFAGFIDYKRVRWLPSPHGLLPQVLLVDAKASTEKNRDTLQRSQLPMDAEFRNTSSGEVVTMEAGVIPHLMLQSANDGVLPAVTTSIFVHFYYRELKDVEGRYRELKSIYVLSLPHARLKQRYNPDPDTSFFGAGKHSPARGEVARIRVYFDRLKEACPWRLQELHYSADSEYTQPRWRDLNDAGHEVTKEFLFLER

SfiI D100A [2] = biological target: T2, SfiI D100A (UniProt O52512 1-269, D100A); test: competition
T2 sequence: T1 sequence with D100A

SfiI D79A [3] = biological target: T3, SfiI D79A (UniProt O52512 1-269, D79A); test: competition
T3 sequence: T1 sequence with D79A

SfiI D100A [4] = biological target: T2, SfiI D100A; test: EMSA
SfiI D79A [5] = biological target: T3, SfiI D79A; test: EMSA
SfiI endonuclease wt [6] = biological target: T1, SfiI endonuclease wt; test: EMSA
AUC = biological target: the molecule itself; test: AUC

B1: C-21 (dsDNA)
DNA 1: ATGTGGCCAACAAGGCCTATT
DNA 2: AATAGGCCTTGTTGGCCACAT
- binding result (SfiI endonuclease wt [1]): binds
- binding result (SfiI D100A [2]): binds
- binding result (SfiI D79A [3]): binds

B2: HEX-35 (dsDNA)
DNA 1: TCGATCCATGTGGCCAACAAGGCCTATTTGTCGAT
DNA 2: ATCGACAAATAGGCCTTGTTGGCCACATGGATCGA
- Kd (SfiI D100A [4]): < 10 nM
- Kd (SfiI D79A [5]): < 10 nM
- Kd (SfiI endonuclease wt [6]): < 10 nM

B3: SfiI restriction endonuclease D79A mutant (enzyme)
chain: T1 sequence with D79A
- stoichiometry N (AUC): 4

B4: SfiI restriction endonuclease D100A mutant (enzyme)
chain: T1 sequence with D100A
- stoichiometry N (AUC): 4
